Results taken from the supplement of paper PMC7877785.
± gives the uncertainty stated by the source.

Test: self-splicing fitness, log relative to wild type (ln ratio); higher = more splicing; Tetrahymena group I intron in knt gene, E. coli kanamycin selection, DiMSum; sequences stand for … in CUCUCU…GGAGGGAAAAGUUAUCAGGCAUGCACCUGGUAGCUAGUCUUUAAACCAAUAGAUUGCAUCGGUUUAAAAGGCAAGACCGUCAAAUUGCGGGAAAGGGGUCAACAGCCGUUCAGUACCAAGUCUCAGGGGAAACUUUGAGAUGGCCUUGCAAAGGGUAUGGUAAUAAGCUGACGGACAUGGUCCUAACCACGCAGCCAAGUCCUAAGUCAACAGAUCUUCUGUUGAUAUGGAUGCAGUUCACAGACUAAAUGUCGGUCGGGGAAGAUGUAUUCUUCUCAUAAGAUAUAGUCGGACCUCUCCUUAAUGGGAGCUAGCGGAUGAAGUGAUGCAACACUGGAGCCGCUGGGAACUAAUUUGUAUGCGAAAGUAUAUUGAUUAGUUUUGGAGUACUCGUGGUCG
Procedure, shortened: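 Six replicate transformations of E. coli BL21(DE3) with a pET-22b(+) library were grown overnight at 37°C or 30°C. The library randomised all eight P1ex-region intron nucleotides, the intron lying in the knt kanamycin-resistance gene, and plates were LB agar with or without 25 μg/mL kanamycin plus 100 μg/mL carbenicillin, 50 μM IPTG and 0.2% rhamnose. Pooled colonies were amplicon-sequenced on an Illumina HiSeq 2500, and fitness is the DiMSum error-weighted combination of wild-type-normalised replicate fold changes, kanamycin versus none.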

| Sequence | self-splicing fitness (ln) (30 °C) | self-splicing fitness (ln) (37 °C) |
| --- | --- | --- |
| AUGUAGCAAUAUUACGCUGG | -3.03 ± 0.14 | -1.92 ± 0.16 |
| AUGUAGCAAUAUUACGGGCC | -2.93 ± 0.35 | -1.86 ± 0.32 |
| AUGUAGCAAUAUUACGGGCU | -2.18 ± 0.16 | -0.877 ± 0.16 |
| AUGUAGCAAUAUUACGUACA | -0.425 ± 0.14 | -0.328 ± 0.16 |
| AUGUAGCAAUAUUACGUCAU | -1.81 ± 0.059 | -0.896 ± 0.069 |
| AUGUAGCAAUAUUACGUGCG | -1.8 ± 0.09 | -0.122 ± 0.097 |
| AUGUAGCAAUAUUACGUGGA | -1.58 ± 0.22 | -3.15 ± 0.24 |
| AUGUAGCAAUAUUACGUGGC | -4.11 ± 0.46 | -2.84 ± 0.25 |
| AUGUAGCAAUAUUACGUGUU | -2.4 ± 0.12 | -1.08 ± 0.14 |
| AUGUAGCAAUAUUACGUUCU | -1.05 ± 0.082 | -0.469 ± 0.094 |
| AUGUAGCAAUAUUACGUUUU | -2.64 ± 0.074 | -1.8 ± 0.1 |
| AUUAAGCAAUAUUACGAGGG | – | -2.96 ± 0.36 |
| AUUAAGCAAUAUUACGAUCC | -0.418 ± 0.11 | -0.106 ± 0.19 |
| AUUAAGCAAUAUUACGCCCA | -1.11 ± 0.19 | -0.42 ± 0.29 |
| AUUAAGCAAUAUUACGCGGU | -3.93 ± 0.47 | -3.09 ± 0.35 |
| AUUAAGCAAUAUUACGCUGC | -3.87 ± 0.27 | -1.98 ± 0.22 |
| AUUAAGCAAUAUUACGGAAC | -3.44 ± 0.2 | -0.822 ± 0.13 |
| AUUAAGCAAUAUUACGGAGA | -2.53 ± 0.19 | -3.25 ± 0.32 |
| AUUAAGCAAUAUUACGGAUC | -1.85 ± 0.16 | -0.479 ± 0.18 |
| AUUAAGCAAUAUUACGGCUA | -0.106 ± 0.11 | -0.122 ± 0.11 |
| AUUAAGCAAUAUUACGGGUA | -2.2 ± 0.17 | -0.0398 ± 0.12 |
| AUUAAGCAAUAUUACGUCGA | -1 ± 0.1 | -0.855 ± 0.13 |
| AUUAAGCAAUAUUACGUCGU | -1.43 ± 0.094 | -0.383 ± 0.12 |
| AUUAAGCAAUAUUACGUGGG | -3.45 ± 0.17 | -2.44 ± 0.16 |
| AUUAAGCAAUAUUACGUUAA | -2.52 ± 0.15 | -1.35 ± 0.12 |

| Sequence | self-splicing fitness (ln) (30 °C) | self-splicing fitness (ln) (37 °C) |
| --- | --- | --- |
| AUUAAGCAAUAUUACGUUGA | -2.67 ± 0.24 | -1.95 ± 0.16 |
| AUUCAGCAAUAUUACGAAGC | -3.62 ± 0.27 | -1.32 ± 0.17 |
| AUUCAGCAAUAUUACGACCC | 0.119 ± 0.42 | – |
| AUUCAGCAAUAUUACGACGU | -0.0483 ± 0.06 | 0.146 ± 0.068 |
| AUUCAGCAAUAUUACGAGAA | -1.51 ± 0.18 | -1.74 ± 0.18 |
| AUUCAGCAAUAUUACGCACG | -0.783 ± 0.16 | -0.413 ± 0.16 |
| AUUCAGCAAUAUUACGCGAG | -0.677 ± 0.065 | -0.126 ± 0.079 |
| AUUCAGCAAUAUUACGCUCU | -0.186 ± 0.094 | 0.683 ± 0.12 |
| AUUCAGCAAUAUUACGCUGU | -2.87 ± 0.21 | -1.09 ± 0.18 |
| AUUCAGCAAUAUUACGCUUG | -0.971 ± 0.083 | -0.265 ± 0.093 |
| AUUCAGCAAUAUUACGGAGA | -1.48 ± 0.12 | -0.618 ± 0.11 |
| AUUCAGCAAUAUUACGGAGC | -2.82 ± 0.23 | -1.71 ± 0.19 |
| AUUCAGCAAUAUUACGGGAG | -0.828 ± 0.051 | -0.443 ± 0.063 |
| AUUCAGCAAUAUUACGGGCG | -0.695 ± 0.1 | -0.0814 ± 0.12 |
| AUUCAGCAAUAUUACGGUGU | -0.571 ± 0.042 | -0.106 ± 0.055 |
| AUUCAGCAAUAUUACGUAUC | -3.62 ± 0.26 | -1.04 ± 0.16 |
| AUUCAGCAAUAUUACGUCCU | -1.05 ± 0.066 | -0.0115 ± 0.11 |
| AUUCAGCAAUAUUACGUCGA | -0.991 ± 0.085 | -0.503 ± 0.097 |
| AUUCAGCAAUAUUACGUGGG | -2.63 ± 0.11 | -1.87 ± 0.1 |
| AUUCAGCAAUAUUACGUUCC | -1.54 ± 0.14 | -1.5 ± 0.21 |
| AUUCAGCAAUAUUACGUUGC | -2.72 ± 0.23 | -2.52 ± 0.3 |
| AUUGAGCAAUAUUACGAAUC | -2.93 ± 0.4 | – |
| AUUGAGCAAUAUUACGAGGG | -2.87 ± 0.14 | -2.85 ± 0.29 |
| AUUGAGCAAUAUUACGAUUU | -1.11 ± 0.09 | -0.383 ± 0.11 |
| AUUGAGCAAUAUUACGCACG | -3.07 ± 0.37 | – |

| Sequence | self-splicing fitness (ln) (30 °C) | self-splicing fitness (ln) (37 °C) |
| --- | --- | --- |
| AUUGAGCAAUAUUACGCAGA | – | -2.45 ± 0.41 |
| AUUGAGCAAUAUUACGCAUG | -4 ± 0.32 | -0.903 ± 0.26 |
| AUUGAGCAAUAUUACGCAUU | -2.64 ± 0.23 | -1.49 ± 0.18 |
| AUUGAGCAAUAUUACGCUAG | – | -2.2 ± 0.22 |
| AUUGAGCAAUAUUACGCUCU | -3.63 ± 0.24 | -2.27 ± 0.17 |
| AUUGAGCAAUAUUACGGACG | -2.11 ± 0.3 | -1.96 ± 0.32 |
| AUUGAGCAAUAUUACGGCGU | -0.734 ± 0.11 | 0.573 ± 0.17 |
| AUUGAGCAAUAUUACGGGAC | -3.28 ± 0.42 | – |
| AUUGAGCAAUAUUACGGGGA | -2.32 ± 0.24 | -2.49 ± 0.28 |
| AUUGAGCAAUAUUACGGGGG | -4.39 ± 0.46 | -3.19 ± 0.31 |
| AUUGAGCAAUAUUACGGUCC | – | -1.58 ± 0.22 |
| AUUGAGCAAUAUUACGUAAG | -2.78 ± 0.13 | -1.82 ± 0.13 |
| AUUGAGCAAUAUUACGUAGC | -3.31 ± 0.4 | -2.32 ± 0.31 |
| AUUGAGCAAUAUUACGUCUC | – | -2.21 ± 0.42 |
| AUUGAGCAAUAUUACGUGAC | – | -1.61 ± 0.45 |
| AUUGAGCAAUAUUACGUGUA | -3.52 ± 0.21 | -2.69 ± 0.24 |
| AUUGAGCAAUAUUACGUUAC | – | -1.76 ± 0.3 |
| AUUUAGCAAUAUUACGAAUA | -2.16 ± 0.33 | -0.575 ± 0.27 |
| AUUUAGCAAUAUUACGACAU | 0.163 ± 0.014 | 0.28 ± 0.033 |
| AUUUAGCAAUAUUACGACGU | 0.023 ± 0.064 | 0.539 ± 0.077 |
| AUUUAGCAAUAUUACGAGAA | -2.09 ± 0.32 | -1.2 ± 0.28 |
| AUUUAGCAAUAUUACGAGCC | -1.74 ± 0.46 | – |
| AUUUAGCAAUAUUACGAGUG | -2.59 ± 0.18 | -0.743 ± 0.18 |
| AUUUAGCAAUAUUACGAUAA | -1.53 ± 0.2 | -0.502 ± 0.39 |
| AUUUAGCAAUAUUACGAUUG | -2.72 ± 0.21 | -2.05 ± 0.27 |

| Sequence | self-splicing fitness (ln) (30 °C) | self-splicing fitness (ln) (37 °C) |
| --- | --- | --- |
| AUUUAGCAAUAUUACGCAGA | -2.07 ± 0.3 | -1.07 ± 0.19 |
| AUUUAGCAAUAUUACGCCCG | -1.48 ± 0.24 | -1.15 ± 0.28 |
| AUUUAGCAAUAUUACGCCUU | -0.196 ± 0.092 | -0.0916 ± 0.12 |
| AUUUAGCAAUAUUACGCUCA | -1.14 ± 0.18 | 0.0165 ± 0.19 |
| AUUUAGCAAUAUUACGCUGU | -1.33 ± 0.14 | -1.01 ± 0.16 |
| AUUUAGCAAUAUUACGGACA | -1.34 ± 0.27 | -0.739 ± 0.27 |
| AUUUAGCAAUAUUACGGACG | -2.26 ± 0.24 | -1.75 ± 0.24 |
| AUUUAGCAAUAUUACGGACU | 0.0925 ± 0.11 | 0.805 ± 0.13 |
| AUUUAGCAAUAUUACGGAUG | -1.94 ± 0.14 | -1.91 ± 0.2 |
| AUUUAGCAAUAUUACGGCAC | -0.95 ± 0.27 | – |
| AUUUAGCAAUAUUACGGCGC | -0.408 ± 0.16 | -0.248 ± 0.22 |
| AUUUAGCAAUAUUACGGCUC | -0.153 ± 0.097 | 0.0525 ± 0.11 |
| AUUUAGCAAUAUUACGGCUG | -0.937 ± 0.12 | -0.723 ± 0.13 |
| AUUUAGCAAUAUUACGGGAC | -2.36 ± 0.32 | -1.32 ± 0.26 |
| AUUUAGCAAUAUUACGGGUC | – | -2.23 ± 0.34 |
| AUUUAGCAAUAUUACGGUGC | -4.12 ± 0.46 | -1.55 ± 0.23 |
| AUUUAGCAAUAUUACGGUUG | -2.68 ± 0.39 | – |
| AUUUAGCAAUAUUACGUACG | -1.48 ± 0.19 | -1.66 ± 0.34 |
| AUUUAGCAAUAUUACGUAUG | -2.35 ± 0.34 | -0.838 ± 0.41 |
| AUUUAGCAAUAUUACGUGUC | -2.55 ± 0.42 | -2.87 ± 0.43 |
| AUUUAGCAAUAUUACGUUAG | -3.03 ± 0.47 | -2.61 ± 0.25 |
| AUUUAGCAAUAUUACGUUUG | -3.78 ± 0.21 | -1.25 ± 0.16 |
| CAAAAGCAAUAUUACGAAGU | -3.16 ± 0.15 | -2.23 ± 0.13 |
| CAAAAGCAAUAUUACGACGC | -0.886 ± 0.092 | -1.14 ± 0.14 |
| CAAAAGCAAUAUUACGAUUG | -2.75 ± 0.087 | -1.82 ± 0.1 |
